Measurements published in the nanobody polyreactivity screen of Harvey et al. (2022).

Test: yeast display, Sf9 membrane polyspecificity reagent, FACS + sequencing; frameworks hold sequencing errors
In short: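 A nanobody's polyreactivity label depends on the gate it was sorted from. Yeast display cells were stained with 10% biotinylated, detergent-solubilized Sf9 membrane reagent for 1 hour at 4 °C, enriched on streptavidin microbeads and sorted by FACS. The low and high (top ~1%) gates were set on anti-HA fluorescence for expression and streptavidin fluorescence for reagent binding.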

| Sequence | polyreactivity (PSR sort gate) |
| --- | --- |
| QVQLVESGGGLVQAGGSLRLSCAASGSTFAYNDMGWYRQAPGKERELVADSRSGGNTNYADSVKGRFTISRDNAKNTVYLQMNSLKREDTAVYYCATDGYRIDVFHPDYRYDYWGHGTQVTVSS | low polyreactivity |
| QVQHVESGGGLVQAGGSLRLSCAATGRIFTAYYAMGWYRQAPGKERELVASISSSGTSTYADSVKGRFTISRDNAKNTVYLQMNSLKPDDTAVYYCATRKLRTRRYDYGYWGQGTQVTVSS | low polyreactivity |
| QVQLVESGGGLVQAGGSLRLSCAASGFIFSGNAMGWYRQAPGKERELVAAITRGGITYYADSVKGRFTISRDNAKNTVYLQMNSLKPEDTAVYYCNALGFGSNYDYWGQGTQVTVSS | high polyreactivity |
| QVQLVESGGGLVQAGGSLRLRCAASGRTFPSYTMGWYRQAPGKERELVAAITWTGGSTYYADSVKGRFTISRDNAKNTVYLQMNSLKPEDTAVYYCADYDYWGQGTQVTVSS | low polyreactivity |
| QVQLVESGGGLVQAGGSLRLSCAASGSTFVINAMGWYRQAPGKERELVADIDYRGGSTNYADSVKGRFTISRDNAKNTVYLLMNSLKPEDTAVYYCNKRYVIRRRGYDYWGQGTQVTVSS | low polyreactivity |
| QVQLVESGGGLVQAGGSLRLSCAASGITFTGYAMGWYRQAPGKERELVAAITWSSGSTYYADSVKGRFTISRDNAKNTVYLQMNSLKPEDTAVYYCNTDYGRYLYYRYGYWGQGTQVTVSS | low polyreactivity |
| QVQLVESGGGLVQAGGSLRLSCAGSGSTFRYNAMGWYRQAPGKERELVAAISQRGGSTYYADSVKGRFTISRDNANNTVYLQMNSLKPEDTAVYYCPGDYWGQGTQVTVSS | high polyreactivity |
| QVQLVESGGGLVQAGGSLRLSCAASGSTFVPNAMGWYRQAPGKERELVAAISRSAGSTYYADSVKGRFTISRDNAKNTVYLQMNSLKPEDTAVYYCAAVSLTYIAYDYWGQGTQVTVSS | high polyreactivity |
| QVQLVESGGGLVQAGGSLRLSCAATGFTFGRYAMGWYRQAPGKERELVAAITWSGGSTYYADSVKGRFTISRDNAKNTVYLQMNSLKPEDTAVYYCNRLSNNREYDYWGQGTQVTVSS | high polyreactivity |
| QVQIVESGGGLVQAGGSLRLSCGASGRIFYNYALGWYRQAPGKERELVAAISGSGGSTYYADSVKGRFTISRDNAKNTVYLQMNSLKPEDTAVYYCSTSGPQYYSRNFDYWGQGTQVTVSS | low polyreactivity |
| QVQLVESGGGLVQAGGSLRLSCAASGSNSPTMLMGGYRKAPGKERELVAAISGGGRTNYADSVKGRFTISRDNAKNTVYLQMNSLKPEETAVYYCAAGGYYQRTRGDWGQGTQVTVSS | high polyreactivity |
| QVQLVESGGGLVQAGGSLRLSCAASGRTIIRNTMGWYRQAPGKERELVARISYGGGRTYYADSVKGRFTISRDNAKNTVYLQMNSLKPEDTAVYYCAKVTPPFWGGYWYNYWGQGTQVTVSS | high polyreactivity |
| QVQLVESGGGLVQAGGSLRLSCAASGSIFFKNVMGWYRQAPGKERELVAAITWSGGSTYYADSVKGRFTISRDNAKNTVYLQMNSLKPEDTAVYYCNARRSKGMYYWGQGTQVTVSS | high polyreactivity |
| QVQLVESGGGLVQAGGSLRLSCAASGSSFSYYTMGWYRQAPGKERELVAAITSGGPTNYADSVKGRFTISRDNAKKTVYLQMNSLKPEDTAVYYCAADLYYGWGYYYWGQGTQVTVSS | low polyreactivity |
| QVQLVESGGGLVQAGGSLRLSCAASGFIFIHNAMGWYRQAPGKERELVAAISYSGGSTYYADSVKGRFTISRDNAKNTVYLQMNSLKPEDTAVYYCNRVQYYRADRMDYWGQGTQVTVSS | low polyreactivity |
| QVQLVESGGGLVQAGGCLRLSCAASGSIFGYNAMGWYRHAPGKERELVAAISWRGGSTYYADSVKGRFTISRDNAKNSVYLQMNSLKPEDTAVYYCNTLYPYRHDYAGDYWGQGTQVTVSA | high polyreactivity |

| Sequence | polyreactivity (PSR sort gate) |
| --- | --- |
| QVQLVESGGGLVQAGGSHRLSCASYGSIFRCYAKGWYRQAPGKERELVAGITRSGGSTYYADSVKGRFTISRDNAKNTVYLQLNRLKPEDTAVYYCNADLYRKRAWVRRDGSWGHGTQVTVSS | low polyreactivity |
| QVQLVESGGGLVQAGGSLRLICAASGRIFWQYAMGWYRQAPGKERELVAAISRSGGSTYYADSVKGRFTISRDNAKNTVYLQMNSLKPEDTAVYYCAARKASGVPGSAGRPEYYYWGQGTQVTVSS | high polyreactivity |
| QEQLEESGGGLVQAGGRLRLSCAASGSIFTTYTMGWYRQAPGKERELVAAIDYSGDSTYYADSGKGRFTISRDTAKNTVYLQMNSLKPEDTAVYYCNAVSFSAYVPYGYWGQGTQVTVSS | low polyreactivity |
| HVQLVESGGGFVQAGGSLRLICAASVRNFDVYSMGWYRQAPGKERELVAAISRRGGSTYYADSVKGRFTISRDNAKNTVYLQMNRLKPEDTAVYYCAAQSRQAYMTYGYWGLGTQVTVSS | high polyreactivity |
| QVQLVESGGGLVQAGGSLRLSCAASGRTFYYAMGWYRQAPVKERYADSVKGRFTISRDNAKNTVYLQMNSLKPEDTAVYYCAAKVPEPPSLDESDYWGQGTQVTVSS | low polyreactivity |
| QVQLVESGGGLVQAGGSLRLSCAASGSIFDAYAMGWYRQAPGKERELVAGITSGGSTNYADSVKGRFTISRDNAKNSVYLQMNSLKPEDTAVYYCAAQCDYANIYLIFNYWGQGTQVTVSS | low polyreactivity |
| QVQLVESGGGLVQAGRSLRLSCAASGSILGFYAMGWYRHAPGKERELVAAIRWRAGSTYYADSVKGRFTISRDNAKNTVNLQMNSLKPEDTAVYYCAAPTKYRSRRYYWGQGTQVTVSS | high polyreactivity |
| QVQLVESGGGLVQAGGSLRLSCAASGSTFVIYAMGWYRQAPGKERELVAAIRLGGGSTYYADSVKGRFTISRDNANNTVYLQMNSLKPEDTAVYYCAAEVDQWYYRGYDYWGQGTQVTVSS | high polyreactivity |
| QVQLVESGGGLVQAGGSLRLSCAASGSIFYHYVMGWYRQAPGKDRELVAGISWSGVSTYYADSVKGLFTISRDNAKNTVYLQMNSLKPEDTAVYYCAAVYRQSRLHTFGYWGQGTQVTVSS | high polyreactivity |
| QVQLVESGGGLVQAGGSLRLSCAASGRTFGSYAMGWYRQAPGKERELVAGISWSGGITYYADSVKGRFTISRDNAKNTVYLQMNSLKPEDTAVYYCAASPRRDENAGRVRLYYWGQGTQVTVSS | high polyreactivity |
| QVQLVESGGGLVQAGGSLRLSCAASGRTFLRYAMGWSRQAPGKERELVAAISSRGGRTYYADSVKGRFTISRDNAKNTVYLQMNILKPEDTAVYYCNARYSPRTGRGRHVTYYYWGQGTQVTVSS | high polyreactivity |
| QVQLVESGGGLVQAGGSLRLSCAASGSIFVSNAMGWYRQAPGKERELVAAITARDFSTYYADSVKGRFTISRDNAKNTVYLEMNSQKPEDTAVYYCAGNSSTYPSDDSYDYWGQGTQVTVSS | low polyreactivity |
| QVQLVESGGGLVQAGGSLRLSCAASGRIFVSNAMGWYRQAPGKERELVAAISKSGGRTYYADSVKGRFTISRVNAKNTVYLQMNSLKPEDTAVYYCAARSRVSPRYDYWGQGTQVTVSS | high polyreactivity |
| QVQLVESGGGLVQAGGSLRLSCAASGSIFYFNGMGWYRQAPGKERELVAAITWGDGSTYYADSVKGRFTISRDNAKNTVYLQMNSLKREDNAVYYCAAVLLIFKYVPRYDYWGQGTQVTVSS | low polyreactivity |
| QVQLVESGGGLVQAGGSLRLSCAASGSIFQYNAMGWYRQAPGKRELVAAINRSGGSTYYADSVKGRFTISRDYAKNTVYLQMNSLKPEDTAVYYCAAVRYDRARGSPYPDRVGVYSWGQGTQVTVSS | high polyreactivity |
| QVQLVESGGGLVQAGGSLRLSCAASGRIFLWYAMGWYRKAPGKERELVADISSNGGSTRYADSVKGRFAISRDNEKNTVYLQMNILKPEDTAVYYCNADVHWNRYRYGGNGYGYWGQGTQVTVSS | low polyreactivity |
